Entries after “also recorded” stand apart in the source; their conditions may differ.
Tests used:
MR1 / MAIT cells = conditions: cited from earlier work; for effect on MAIT cell activation: background statement
B16F10 melanoma cells = assay: B16F10 experimental lung metastasis model; assay type: in vivo, mouse
Procedure: FIG. 2. […] (A) The schematic and timeline of expanding MAIT cells from splenocytes derived from C57BL/6 WT mice with IL-2 and 5-OP-RU, for sorting and adoptive transfer into tumor-bearing mice. (B, C) Groups of WT or MR1^−/− or Rag2cγ^−/− mice (n=5-6/group) were injected i.v. with (B) 1×10^5 or (C) 1×10^4 B16F10 melanoma cells. In some groups, sorted MAIT or T conventional cells (cT) (non-MAIT αβ^+ T cells) (2×10^5 cells/mouse) from C57BL/6 (B) WT or (C) TCRδ^−/− mice were i.v. injected into the indicated groups of mice one day before tumor inoculation. (C) One group of mice received i.v injection of media alone as a control. (B, C) On day 14 relative to tumor cell inoculation, lungs were harvested and the metastatic burden was quantified by counting colonies on the lung surface. Data presented as mean±SEM. (D) B16F10 or LWT1 melanoma cells were stimulated in vitro with DMSO or 5-OP-RU (100 nM) for 4 hours before cell surface MR1 expression was determined by flow cytometry. Groups of C57BL/6 WT or MR1^−/− mice (n=5-6/group) were i.v. injected with (E) 1×10^5 B16F10 or (F) 5×10^5 LWT1 cells melanoma cells pulsed with DMSO or 5-OP-RU (100 nM, 4 hours). Fourteen days later relative to tumor cell inoculation, lungs were harvested and the metastatic burden was quantified by counting colonies on the lung surface. Data presented as mean±SEM. Experiments performed once for (B, C, F) and three times for (D, E) with one representative experiment shown. Significant differences between groups as indicated by crossbars were determined using a one-way ANOVA followed by Tukey's post-hoc test (B, E, F), *p<0.05, **p<0.01, ****p<0.0001
FIG. 5. […] (A) Generation of three independent B16F10 cell lines knocked out for MR1 using three different MR1 sgRNA. […] Empty vector transfected B16F10 cells were used as a positive control. (B, C) Groups of C57BL/6 WT, MR1^−/− or Rag2cγ^−/− mice (n=5-6/group) were i.v. injected with either (B) 1×10^5 B16F10 vector control cells or the indicated clone of B16F10 cells lacking MR1 (sgR1, sgR2, sgR3) or (C) 1×10^4 B16F10-MR1^KO cells (sgR3 clone). On day 14 relative to tumor cell inoculation, lungs were harvested and the metastatic burden was quantified by counting colonies on the lung surface. Data presented as mean±SEM. (D) Re-expression of GFP or GFP-MR1 expressing vector into B16F10-MR1^KO (sgR3 clone). MR1 surface expressions of these cells stimulated with or without 5-OP-RU were assessed by flow cytometry. (E) Groups of C57BL/6 WT mice (n=6/group) were i.v. injected with 1×10^5 B16F10-MR1^KO (sgR3 clone) transfected with empty GFP-expressing vector or MR1-GFP-expressing vector. (F) Groups of C57BL/6 WT or MR1^−/− mice were i.v. injected with parental B16F10 cells treated with vehicle (dd H2O) or AC-6-FP (10 μM, 18 hours). On day 14 relative to tumor cell injection, lungs were harvested and the metastatic burden was quantified by counting colonies on the lung surface. Data presented as mean±SEM. Experiments performed twice for (A-E) and once for (F). Significant differences between groups as indicated by crossbars were determined by a one-way ANOVA followed by Tukey's post-hoc test (A, F), or a Mann-Whitney test (C, E), *p<0.05, **p<0.01, ****p<0.0001.
FIG. 6. […] Groups of C57BL/6 WT or MR1^−/− mice (n=5-6/group) were i.v. injected with (A, B) 1×10^5 B16F10, (C) 1×10^5 parental B16F10 or 2×10^5 B16F10-MR1^KO (sgR3 clone) melanoma cells and (D) 5×10^5 LWT1 melanoma cells or s.c injected with (E) 1×10^6 MCA1956 fibrosarcoma or (F) 1×10^6 SM1WT1 melanoma cells on day 0.

[1] = target: T1, surface MR1 on mouse tumor cell lines (Mus musculus, UniProt Q8HWB0); conditions: stated as property of the ligand; cited from earlier work
T1 construct: endogenous in cells

mouse MR1 = mouse MR1 (Mus musculus, UniProt Q8HWB0); assay: Anti-MR1 reactivity with mouse MR1; assay type: binding; conditions: flow cytometry antibody
Description: (§1) MR1 mRNA transcripts are present in different tissues and cell lines from mice and humans. […] In contrast, whether mouse tumor cell lines express MR1 has not previously been examined. […] Basally, the level of MR1 was almost undetectable on the surface of all tumor cell lines examined (FIG. 2D). […] The kinetics of MR1 upregulation on B16F10 cells was similar to what was previously reported for human C1R cells (B-cell lymphoblastoid cell line) (McWilliam et al., 2016). […] Next, the impact of up-regulation of MR1 on B16F10 or LWT1 prior to i.v injection to WT or MR1−/− mice on the number of lung metastases was assessed.

human MR1 = human MR1 (Homo sapiens, UniProt Q95460); assay: Anti-MR1 reactivity with human MR1; assay type: binding; conditions: flow cytometry antibody
Description: as §1

[2] = target: T2, human MR1 (MHC class I-related protein 1) (human, UniProt Q95460 23-341); assay: flow cytometry; human cell lines with or without 5-OP-RU (data not shown)
T2 construct: The assays used endogenous MR1 of human cell lines (flow cytometry) and of FFPE tumor sections (IHC); no signal peptide limits are stated

[3] = target: T3, mouse MR1 (MHC class I-related protein 1) (mouse, UniProt Q8HWB0 19-341); assay: flow cytometry on mouse tumor cell lines with or without 5-OP-RU
T3 construct: whole, on cells; also called surface MR1
Description: as §1

Sequence of human MR1 (Q95460 23-341): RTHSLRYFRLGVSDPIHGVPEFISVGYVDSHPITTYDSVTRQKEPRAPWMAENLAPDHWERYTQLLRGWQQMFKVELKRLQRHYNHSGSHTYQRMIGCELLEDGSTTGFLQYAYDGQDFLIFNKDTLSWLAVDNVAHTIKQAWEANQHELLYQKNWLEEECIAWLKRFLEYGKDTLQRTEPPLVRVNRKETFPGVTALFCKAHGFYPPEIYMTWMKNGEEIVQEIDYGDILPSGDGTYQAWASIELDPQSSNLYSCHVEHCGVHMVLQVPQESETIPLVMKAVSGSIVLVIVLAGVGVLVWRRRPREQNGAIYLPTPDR
Sequence of human MR1 (P61769 21-119 partner): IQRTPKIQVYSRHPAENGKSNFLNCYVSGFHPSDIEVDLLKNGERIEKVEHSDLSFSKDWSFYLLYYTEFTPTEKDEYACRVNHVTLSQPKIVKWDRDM
T2 sequence (Q95460 23-341 limits assumed): as the sequence (Q95460 23-341) above
T3 sequence (Q8HWB0 19-341): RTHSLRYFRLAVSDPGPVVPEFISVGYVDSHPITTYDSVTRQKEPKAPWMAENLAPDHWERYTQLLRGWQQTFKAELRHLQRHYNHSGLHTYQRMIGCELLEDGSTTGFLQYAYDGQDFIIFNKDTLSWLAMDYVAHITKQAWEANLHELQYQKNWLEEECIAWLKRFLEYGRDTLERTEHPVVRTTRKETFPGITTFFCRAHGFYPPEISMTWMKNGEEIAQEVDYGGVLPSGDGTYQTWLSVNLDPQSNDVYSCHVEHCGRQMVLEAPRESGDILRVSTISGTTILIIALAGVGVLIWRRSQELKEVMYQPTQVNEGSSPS
Sequence of mouse MR1 (Q8HWB0 19-341): as above
Sequence of mouse MR1 (P01887 21-119 partner): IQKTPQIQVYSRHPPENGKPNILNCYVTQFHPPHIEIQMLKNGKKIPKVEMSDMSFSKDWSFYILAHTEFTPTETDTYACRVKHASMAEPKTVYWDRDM
T1 sequence (Q8HWB0 19-341): as the sequence (Q8HWB0 19-341) above
T1 sequence (P01887 21-119 partner): as the sequence (P01887 21-119 partner) above

Nc1nc2ncc(C=O)nc2c(=O)[nH]1 [6-FP, 6-formylpterin]
effect on MAIT cell activation (MR1 / MAIT cells): inhibit MAIT cell activation

CC(=O)Nc1nc2ncc(C=O)nc2c(=O)[nH]1 [AC-6-FP, acetyl 6-formylpterin]
number of lung metastases (B16F10 melanoma cells; WT mice injected with B16F10 pre-treated 10 μM 18 hours, vs vehicle-treated, day 14): decrease in metastases numbers
number of lung metastases (B16F10 melanoma cells; WT mice injected with B16F10 pre-treated 10 μM 18 hours, vs vehicle-treated, day 14, listed as Ac-6-FP): dramatically reduced
effect on MAIT cell activation (MR1 / MAIT cells): does not activate MAIT cells; also recorded: inhibit MAIT cell activation
MR1 expression [1]: upregulates MR1

B1: 26.5: anti-MR1 blocking antibody from hybridoma clone 26.5, IgG2a isotype; heavy chain SEQ ID NO: 4, light chain SEQ ID NO: 8 (antibody, listed as Mus musculus, V domains shown)
VH: MEWSRVFIFLLSITAGVHSQVQLQQSGTELVRPGTSVKVSCKASGYAFSNYLIEWIKQRPGQGLEWIGVINPGSGGISYNEKFKGKATLTADKSSSTAYMQLSSLTSEDSAVYFCARWGYLYYYTMDHWGQGTSVTVSS
VL: MKLPVRLLVLMFWIPASSSDVLMTQTPLSLPVSLGDQASISCRSSQSIVQGSGNTFLDWYLQKPGQSPKVLIYKVSNRFSGVPARFSGSGSGTDFTLKISRVEAEDLGVYYCFQGSHVPYTFGGGTKLEIK
number of lung metastases (B16F10 melanoma cells; B16F10 tumor-bearing MR1-/- mice, antibody vs cIg): no further decrease
B16F10 lung metastases (B16F10 melanoma cells; WT mice, 250 μg/mouse i.p. days -1, 0, 3 and 7, vs cIg, day 14): effectively suppressed lung metastases
suppression of B16F10 lung metastases, three vs four doses (B16F10 melanoma cells; WT mice, 250 μg/mouse i.p., days -1, 0, 3 vs days -1, 0, 3 and 7): more effective when four doses
reactivity with mouse MR1 (mouse MR1): cross-reacts with both mouse and human MR1
blocking of MAIT cell interaction with MR1 (MR1 / MAIT cells; stated as known): block MAIT cells from interacting with MR1
reactivity with human MR1 (human MR1): cross-reacts with both mouse and human MR1

B2: anti-MR1 antibody 26.5 (antibody, V domains shown)
VH: QVQLQQSGTELVRPGTSVKVSCKASGYAFSNYLIEWIKQRPGQGLEWIGVINPGSGGISYNEKFKGKATLTADKSSSTAYMQLSSLTSEDSAVYFCARWGYLYYYTMDHWGQGTSVTVSS
VL: DVLMTQTPLSLPVSLGDQASISCRSSQSIVQGSGNTFLDWYLQKPGQSPKVLIYKVSNRFSGVPARFSGSGSGTDFTLKISRVEAEDLGVYYCFQGSHVPYTFGGGTKLEIK
binding result [2]: binds
binding result [3]: binds
